B1: BT2127 (Bacteroides thetaiotaomicron VPI-5482) (protein)
chain: MRKKLKAVLFDMDGVLFNSMPYHSEAWHQVMKTHGLDLSREEAYMHEGRTGASTINIVFQRELGKEATQEEIESIYHEKSILFNSYPEAERMPGAWELLQKVKSEGLTPMVVTGSGQLSLLERLEHNFPGMFHKELMVTAFDVKYGKPNPEPYLMALKKGGLKADEAVVIENAPLGVEAGHKAGIFTIAVNTGPLDGQVLLDAGADLLFPSMQTLCDSWDTIML

Experiments:
[1] = target: T1, BT2127 (Bacteroides thetaiotaomicron, UniProt Q8A5V9); assay: steady-state competitive inhibition of pyrophosphate hydrolysis; format: biochemical
T1 sequence (Q8A5V9 1-224): B1 chain

[2] = substrate: O=[N+]([O-])c1ccc(OP(=O)(O)O)cc1; assay: purified protein; conditions: Mg2+; pH 7.5; 25.0 °C
[3] = substrate: O=P(O)(O)OCC(O)CO; assay: purified protein; conditions: Mg2+; pH 7.5; 25.0 °C
[4] = substrate: O=c1ccn([C@@H]2O[C@H](COP(=O)(O)O)[C@@H](O)[C@H]2O)c(=O)[nH]1; assay: purified protein; conditions: Mg2+; pH 7.5; 25.0 °C

| Molecule | Ki [1] [µM] | Km [2] [µM] | kcat [2] [s⁻¹] | kcat/Km [2] [M⁻¹ s⁻¹] | Km [3] [µM] | kcat [3] [s⁻¹] | kcat/Km [3] [M⁻¹ s⁻¹] | Km [4] [µM] | kcat [4] [s⁻¹] | kcat/Km [4] [M⁻¹ s⁻¹] |
| --- | --- | --- | --- | --- | --- | --- | --- | --- | --- | --- |
| O=P(O)(O)NP(=O)(O)O [imidodiphosphate] | 13 ± 1 |  |  |  |  |  |  |  |  |  |
| B1 |  | 50 ± 10 | 0.0019 | 40 | 4800 ± 300 | 0.35 | 70 | 2600 ± 400 | 0.15 | 60 |

Reference: paper PMC3342813 (2011)
